Laboratory results from PMC9975078.

Biological target: Heterogeneous nuclear ribonucleoprotein A2/B1 (HNRNPA2B1), endogenous (human (endogenous in U2OS))
Sequence (P22626 whole entry): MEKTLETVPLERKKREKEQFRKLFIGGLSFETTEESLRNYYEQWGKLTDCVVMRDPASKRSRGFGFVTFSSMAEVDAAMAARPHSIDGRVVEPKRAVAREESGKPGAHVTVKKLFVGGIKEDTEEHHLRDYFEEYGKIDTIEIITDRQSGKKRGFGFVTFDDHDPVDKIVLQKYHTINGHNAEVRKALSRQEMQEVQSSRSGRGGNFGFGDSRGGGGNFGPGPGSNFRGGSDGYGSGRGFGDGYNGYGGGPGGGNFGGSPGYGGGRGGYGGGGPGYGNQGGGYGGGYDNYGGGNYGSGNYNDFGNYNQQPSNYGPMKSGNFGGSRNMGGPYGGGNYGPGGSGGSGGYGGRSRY

- percent of RPA1 bound by HNRNPA2B1: 43%
Substance: Replication Protein A subunit RPA70 (RPA1), endogenous (from UniProt P27694 1-616) (natural protein)
